B1: TPR t1 (parent)
chain: GACCAAUCUGCCCUCAGAGCUCGAGAACAUCUUCGGAUGCAGAGGAGGCAGGCUUCGGUGGCGCGAUAGCGCCAACGUCCUCAACCUCCAAUGCAUCCCACCACAUGAUGAUGCCUGAAGAGCCUUGGUUUUUUG

Variants of: B1
Assay: polymerase ribozyme fitness, log enrichment relative to wild type (log ratio); higher = more active; in vitro selection for triplet polymerase activity
Procedure, shortened: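 Fitness measures genotype enrichment against wild-type enrichment on a logarithmic scale, with inverse-variance-weighted averaging of replicates. The logarithm is base 2, and genotypes were kept only with ≥10 input reads and ≥1 read per output in Illumina sequencing. The sequenced libraries came from one triplicate in vitro selection round, including frozen incubation at −7 °C, of PCR-built, transcribed mutant libraries of each subunit of a heterodimeric triplet polymerase ribozyme.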

Variant	polymerase ribozyme fitness (log ratio)
C34A A50C	-3.5
C104U U133C	0.657
C15A U33A G42C U78C C79U A111G	-6.15
G10U C11U G71U C79U	-0.361
C53U G60C G120A	0.0788
U33G G65U C72G A111C A118U	-6.82
A91G U106G A111G	-3.06
C40U C72A	-0.504
A37U C73A	-0.559
A121U C124U	2.15
G117A U130G	-1.63
G19U A29G	-4.96
G44U C56G U92A C115A	-4.27
G69C	-1.27
C34A U87A A105G	-6.02
G58C G110C A121U	-4.05
C56U A90G U125A	-0.318
A50G G120A	0.658
C8A C64A U112C U125A	-5.5
C49G G117C	-4.72
C56A U106A	-0.695
G57A U78C	-1.27
G71U C72U A118G	-0.476
A26C C53U U54A G60U	-5.26

Variant	polymerase ribozyme fitness (log ratio)
C12U G120A	1.63
U33G C49G G57A C62U A84C C88G G93A G110C	-7.42
C13G G71A G128U	-4.42
C85U C88U	-0.176
U55A C62U C85A A100U C102U	-5.11
C15U C79G C98U	-4.8
U9G A95C U130A	-0.961
G10A C40U A46C U130G	-2.46
G93A C104A G113C	-4.27
C15G A37C A46U C53A C56G	-4.78
C15A G47U G61U	-3.15
A29U C124U	-0.47
A2U A37U C72A U78A C124G	-0.247
U32C C64U	0.123
C70U U78G A108G A111C	-2.26
A27U G71U C94A	-4.88
C12U C73A	0.441
G44U C64U C82U U106G G120A	-1.25
A18U C62U C89A U133A	-2.36
U14G G39A C85U G117A	-3.84
G25C A83C C94G A103U C124G U125C	-8.57
C85A C99U	-4.7
G45A C73U C97U A103U G120C	-5.59
G39A A66C C86G	-2.29

Variant	polymerase ribozyme fitness (log ratio)
A26U G122A G127U U133G	-4.8
C8A A37U C104A	-1.64
U9A G39C	-0.517
C82U C89A	-1.21
A16C A46U G117A U133G	-6.47
G45A G71U C115G	-2.11
A43G U55C C62U U109A G135C	-5.8
A95C G113C C124G	-1.76
G35A C62U	-4.22
A46G U55G	0.201
C53U C114A	-1.2
C8A U9G C94G	-0.653
A2C C123A	-0.696
C8U G57U G110U	-1.01
C12A U81C	-1.73
C73U U87C C89G G120A	-1.46
G19C G39A C53A C76U	-3.34
A2C A16U C72A U125A	-3.54
A5U C31U G110C	-6.73
A24G U81A	-2.64
A6C G42U C79U A90C	-0.731
G36U G44A G63A	-3.52
G36U U112A	0.888
C34A C94U A121G U125A U129A	-3

Variant	polymerase ribozyme fitness (log ratio)
G39U C123U	0.845
C15A A46C G63A G113C C114U	-6.03
C49U A95U C102A	-3.2
C62G U133A	-1.22
A37U G77U	-0.679
U54G G60U	-3.4
U87C U130C	0.298
G44A G51A G63U U125A	-7.95
G69A C70U	-3.12
G19A C114A A121U	-1.17
A2G G110A	-1.38
C79G C85G	-3.02
C49U G77A A90U A91G C102A	-6.02
G63U U129C	-1.11
C53U G69A A91U G110A G113U G128U	-5.88
G71U A95C C101U G127A	-3.11
C12G G36C A43C G63C	-4.59
A46U G110U G120C G122A	-5.9
C13G A50U G61U	-3.51
A43U C56G G71U G120A	-4.58
C62A C86A	-2.26
G61U G135U	-1.65
G10U G35C	-5.02
C12U A50G A74U U78C G93A	-1.93

Variant	polymerase ribozyme fitness (log ratio)
A75G C123U	1.55
G45C G47U A50G G57U	-3.62
G44A G52U G122A C123U C124G U130G	-1.46
G93A C98U C124G	0.653
C8U A29U C70U	-2.36
C49A A91C C97G C99U G113A	-7.59
C72U G93A C102U G117A	-4.25
C28U G44C C79U C82U U126C G127U U129G	-3.26
U14A G45A G110U U112C	-4.2
G19U	-2.52
U21C A41G G44A C98U	-4.24
C72G U131G	-0.31
C22U A95G	-3.7
C56A C97U	-1.33
C97A C104A	-5.08
C28U A74U	-2.33
C88A C101A	-1.2
G44C C73A C115U	-2.64
U81G C94G G117U	-6.8
C12A C28U	-1.82
G48A U132A	-0.715
C40U G110A	-1.7
G17C U106G C115G	0.318
G63C U132A	-0.875

Variant	polymerase ribozyme fitness (log ratio)
C12U U38C G107A G117C C123A	-5.15
C4G U9A U112G G117U	-2.18
C89A A121U U125G	-0.211
C13U U32C G93C A95G	-1.09
U54G U132C	-0.456
C11U G17U	-4.34
G113C C114U C115G C124U	-3.2
G35C C124A	-2.66
C3A C8A C62A C97U	-2.46
C62A U126G	-2.4
A46C U87A A91C U96A	-2.01
U14A G52A	-3.3
C12G U14C U59G	-1.18
G39U G61A A75U U81C C99A G117U	-7.32
A26G C53U C101A	-3.58
A5U G51A	-3.23
A50G C70U G113C	-3.88
U38G C115G	-3.06
U9C U14A U21C A43C G117A A119G	-1.44
A74U U96C	-0.884
A50C G61U C114U A118G	-3.14
A16C C53G G63U U132C	-4
U7A C73G	-1.63
G36C U87G U116A	-5.07

Variant	polymerase ribozyme fitness (log ratio)
C73U A75G G77A U109G	-6.15
A6U A16U A50C A83C U129G	-3.64
C13U C72U U92C A105G	-5.23
C53U C56G C101A A121C G135C	0.621
A5G A29U G48C U112G	-4.65
U78A C89U C104U	-1.1
A43C C56U U78C U125A	-3.15
C4U C72A C85U C102U A121G U133A	0.405
A6U C62A A105C	-4
C28U C124A U125A	-0.0946
C56U C72A	-0.0735
C12U C13U C89U U133G	-0.318
C115U U129G	-2.15
A46G G113U	-2.95
U32C G48C	-1.44
G48C U106G	-1.5
C11U U106G	-1.1
C22U C53A	-4.52
C8A U59G C114U	-0.559
C8G A46C U81A C88U G113A	-1.64
U59G G127U	-0.904
C53A C88U C101U C123U	0.64
U9C A50U C94U	-2.36

From the RNAGym collection of RNA variant scans (doi:10.1073/pnas.2313332121)
